From paper PMC8024992 come the findings set out here.

The target in this experiment is ubiquitin-rhodamine (Ub-Rho) (UniProt P0CG48).

Turning to “USP1^WT-UAF1 (active) (from UniProt O94782;Q8TAF3) (complex)”, the KM (= k off/k on) from the KinTek global fit of activity data; +UAF1, Ub-Rho came to 5.94 µM.
